Target: mUHRF1 C-terminally tagged with GFP- and 6xHis-tag (mouse) (UniProt Q8VDF2)
Assay: MST

UniProt Q8VDF2, sequence (Q8VDF2 whole entry): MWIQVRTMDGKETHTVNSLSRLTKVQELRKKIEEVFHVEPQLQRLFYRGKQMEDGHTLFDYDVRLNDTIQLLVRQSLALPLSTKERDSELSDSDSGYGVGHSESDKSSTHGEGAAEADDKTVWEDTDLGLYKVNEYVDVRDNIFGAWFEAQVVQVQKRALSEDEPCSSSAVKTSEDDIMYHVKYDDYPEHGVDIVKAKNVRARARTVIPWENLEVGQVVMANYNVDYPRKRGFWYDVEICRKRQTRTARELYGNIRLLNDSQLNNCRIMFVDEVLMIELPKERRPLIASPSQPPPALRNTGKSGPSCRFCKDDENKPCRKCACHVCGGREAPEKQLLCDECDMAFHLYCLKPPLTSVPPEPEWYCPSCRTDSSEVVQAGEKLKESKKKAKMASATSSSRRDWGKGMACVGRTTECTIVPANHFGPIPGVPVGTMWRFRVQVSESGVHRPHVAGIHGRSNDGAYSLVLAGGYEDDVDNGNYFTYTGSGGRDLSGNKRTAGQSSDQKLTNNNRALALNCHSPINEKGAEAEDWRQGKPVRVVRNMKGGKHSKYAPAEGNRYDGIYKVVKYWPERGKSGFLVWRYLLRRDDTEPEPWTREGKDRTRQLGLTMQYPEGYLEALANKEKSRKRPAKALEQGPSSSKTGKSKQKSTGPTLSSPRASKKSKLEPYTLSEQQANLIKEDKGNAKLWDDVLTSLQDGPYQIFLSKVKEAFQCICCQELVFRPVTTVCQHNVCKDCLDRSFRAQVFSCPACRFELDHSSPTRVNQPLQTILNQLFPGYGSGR

Kd: 440 nM
Substance: GST-mDPPA3 wild-type (from UniProt Q8QZY3 1-150) (natural protein)

From paper doi:10.1101/321604
